This note sets out measurements from patent US20110014635.

One data set has as its system T1, Alcadein α (human Alcα1).
T1 sequence: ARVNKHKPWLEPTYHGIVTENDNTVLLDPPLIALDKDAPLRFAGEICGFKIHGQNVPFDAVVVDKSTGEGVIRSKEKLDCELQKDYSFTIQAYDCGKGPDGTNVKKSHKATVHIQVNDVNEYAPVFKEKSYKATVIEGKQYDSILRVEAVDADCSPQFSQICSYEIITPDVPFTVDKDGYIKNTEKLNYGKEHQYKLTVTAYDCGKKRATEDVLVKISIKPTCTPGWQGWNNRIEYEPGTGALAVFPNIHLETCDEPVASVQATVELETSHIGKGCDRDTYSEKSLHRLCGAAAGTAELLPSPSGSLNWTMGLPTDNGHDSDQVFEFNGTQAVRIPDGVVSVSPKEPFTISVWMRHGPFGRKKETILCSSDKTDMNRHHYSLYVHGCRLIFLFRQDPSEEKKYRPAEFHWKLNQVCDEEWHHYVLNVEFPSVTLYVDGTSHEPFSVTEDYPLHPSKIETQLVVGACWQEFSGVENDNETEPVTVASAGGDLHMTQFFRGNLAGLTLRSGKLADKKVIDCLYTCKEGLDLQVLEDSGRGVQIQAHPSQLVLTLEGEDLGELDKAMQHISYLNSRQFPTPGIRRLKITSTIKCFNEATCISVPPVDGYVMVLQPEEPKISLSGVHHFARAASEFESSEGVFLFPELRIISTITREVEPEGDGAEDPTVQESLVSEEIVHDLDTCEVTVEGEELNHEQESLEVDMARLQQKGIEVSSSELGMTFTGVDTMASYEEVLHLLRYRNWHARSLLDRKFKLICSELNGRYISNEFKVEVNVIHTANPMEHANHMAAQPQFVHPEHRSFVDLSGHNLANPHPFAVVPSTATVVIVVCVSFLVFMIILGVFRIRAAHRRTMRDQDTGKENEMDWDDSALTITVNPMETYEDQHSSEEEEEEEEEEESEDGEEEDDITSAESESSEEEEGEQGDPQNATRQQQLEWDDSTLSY

For a further data set, the system named is T2, Alcadein γ.
T2 sequence: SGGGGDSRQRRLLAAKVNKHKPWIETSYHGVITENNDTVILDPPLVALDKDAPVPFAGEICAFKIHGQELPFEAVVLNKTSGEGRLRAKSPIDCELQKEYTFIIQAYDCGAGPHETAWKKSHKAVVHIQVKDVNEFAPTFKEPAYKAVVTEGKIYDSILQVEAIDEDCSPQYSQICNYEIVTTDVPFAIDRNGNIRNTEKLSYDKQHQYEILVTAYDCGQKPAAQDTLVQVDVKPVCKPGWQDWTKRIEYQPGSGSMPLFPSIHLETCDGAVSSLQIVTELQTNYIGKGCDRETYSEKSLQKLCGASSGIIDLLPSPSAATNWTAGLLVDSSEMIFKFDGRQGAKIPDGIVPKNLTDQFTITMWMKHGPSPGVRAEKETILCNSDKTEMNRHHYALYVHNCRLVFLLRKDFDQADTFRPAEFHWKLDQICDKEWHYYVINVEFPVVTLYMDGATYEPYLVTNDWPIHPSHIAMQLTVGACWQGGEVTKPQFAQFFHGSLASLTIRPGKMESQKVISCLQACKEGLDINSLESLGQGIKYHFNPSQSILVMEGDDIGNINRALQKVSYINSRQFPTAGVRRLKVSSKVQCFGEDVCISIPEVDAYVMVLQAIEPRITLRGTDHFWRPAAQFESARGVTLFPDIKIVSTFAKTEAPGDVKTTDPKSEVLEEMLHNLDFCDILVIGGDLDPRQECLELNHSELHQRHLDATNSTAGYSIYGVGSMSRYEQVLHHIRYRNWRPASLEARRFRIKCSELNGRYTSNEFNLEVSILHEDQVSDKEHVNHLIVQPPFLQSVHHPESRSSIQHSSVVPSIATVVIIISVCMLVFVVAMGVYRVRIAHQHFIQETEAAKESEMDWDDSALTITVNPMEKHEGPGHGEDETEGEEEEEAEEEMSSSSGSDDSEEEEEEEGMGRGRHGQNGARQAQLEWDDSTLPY

The next data set relates to T3, Alcadein β.
T3 sequence: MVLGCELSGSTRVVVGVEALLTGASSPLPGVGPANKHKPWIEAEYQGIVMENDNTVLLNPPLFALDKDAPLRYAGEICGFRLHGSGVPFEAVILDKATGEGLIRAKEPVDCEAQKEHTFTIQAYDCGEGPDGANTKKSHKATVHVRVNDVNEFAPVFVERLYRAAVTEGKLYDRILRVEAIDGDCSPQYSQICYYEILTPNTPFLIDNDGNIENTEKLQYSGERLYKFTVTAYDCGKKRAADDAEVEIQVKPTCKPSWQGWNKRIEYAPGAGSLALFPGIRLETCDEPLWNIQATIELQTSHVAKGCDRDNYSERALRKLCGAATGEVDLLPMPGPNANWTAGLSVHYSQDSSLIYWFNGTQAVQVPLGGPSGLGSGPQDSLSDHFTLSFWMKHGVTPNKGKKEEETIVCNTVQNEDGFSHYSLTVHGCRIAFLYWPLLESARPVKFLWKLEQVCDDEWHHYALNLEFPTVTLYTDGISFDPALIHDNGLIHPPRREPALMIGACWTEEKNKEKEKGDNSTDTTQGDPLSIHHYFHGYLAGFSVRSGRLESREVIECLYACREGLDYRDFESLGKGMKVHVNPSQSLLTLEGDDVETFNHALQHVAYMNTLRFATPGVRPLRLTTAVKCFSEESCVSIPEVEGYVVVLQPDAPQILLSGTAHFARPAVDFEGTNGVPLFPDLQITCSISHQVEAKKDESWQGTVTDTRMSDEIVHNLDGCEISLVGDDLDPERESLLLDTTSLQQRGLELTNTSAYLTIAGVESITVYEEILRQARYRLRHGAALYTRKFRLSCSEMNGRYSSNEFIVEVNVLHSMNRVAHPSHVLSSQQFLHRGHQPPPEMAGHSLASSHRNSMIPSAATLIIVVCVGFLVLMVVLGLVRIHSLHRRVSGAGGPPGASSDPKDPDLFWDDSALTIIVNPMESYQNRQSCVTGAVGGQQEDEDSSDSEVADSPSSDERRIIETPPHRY

As to presenilin (endogenous, HEK293 cells), the “fragments containing the C-terminal (Alcα-ICD) from incubated membrane fractions, Western blot” value in the data set on Alcadein α (human Alcα1) is “such fragments were not detected in the samples to which the presenilin inhibitor was added”. Also, the “fragments containing the C-terminal from incubated membrane fractions, Western blot” value with Alcadein γ and in the data set with Alcadein β was “such fragments were not detected in the samples to which the presenilin inhibitor was added” throughout.
